Laboratory results from US12180485B2, “Repressible control of gene expression” (TRUSTEES OF BOSTON UNIVERSITY, priority 2020, dated 2024).
Positions count from the first letter of the chain named. Entries after “also recorded” stand apart in the source; their conditions may differ.

Experiments:
[1] = test system: mCherry; assay: Drug inhibited knockdown system (Cas13 OFF switch, dNS3/ANR domains), mCherry expression; assay type: cell-based; conditions: split Cas13d linked to dNS3 and ANR domains
[2] = molecular target: CID domains; conditions: cited from earlier work
[3] = test system: mammalian systems; conditions: toxicity in mammalian systems at working concentration; cited from earlier work
[4] = test system: mCherry; assay: Split Cas13 (559/560) or WTCas13 driven by inducible promoters (NFkB, CAGA12, AP1), mCherry knockdown; assay type: cell-based; conditions: NFkB promoter with TGFbeta; CAGA12 promoter with TNFalpha; AP1 promoter with PMA
From the text: FIG. 13A-13E is a series of schematics and graphs showing the coupling of split Cas13 (559/560) expression to inducible promoters responsive to endogenous signals. Inducible promoters responsive to endogenous signals drove split Cas13 expression for the construction of AND logic gate. FIG. 13A is a schematic showing the transfection compositions of endogenous signal-responsive promoters (e.g., “short response elements” and “miniP”) driving split Cas13d's. […] FIG. 13E is a series of bar graphs showing that orthogonality among the 3 inducible promoters tested. In FIG. 13B-13D, the left-right order of the bars for each design is the same as the top-down order of the legend for each bar graph, and “NT-gRNA” is non-target gRNA. In FIG. 13E, the left-right order of the bars is the same as the top-down order of the legend for each bar graph.

[5] = test system: recombinase reporter; assay: Split recombinases (Cre, Flp, PhiC, vCre) with tandem or single CaffVHH, recombinase reporters, caffeine induction; assay type: cell-based; conditions: 48 hours of 100 uM caffeine
[6] = test system: mCherry; assay: mCherry knockdown by inducible split RfxCas13d (ON switch) in transfected HEK 293 FT cells, flow cytometry; assay type: cell-based
[7] = test system: HLA-A2; assay: Endogenous gene knockdown: HLA-A2 antibody staining of HEK 293FT cells transfected with B2M targeting gRNA, flow cytometry; assay type: cell-based; conditions: RAP inducible split pair, compared with WT RfxCas13
[8] = test system: mCherry; assay: mCherry knockdown by LwaCas13a and PspCas13b, WT and GIB CID split sites; assay type: cell-based
From the text: Cas13b was able to facilitate over 70% mCherry knockdown. […] Two additional mCherry-targeting crRNA sequences for LwaCas13a were identified; they both offered moderate mCherry knockdown (around 50% in populations highly expressing Cas13a).
With the LwaCas13a and PspCas13b specific mCherry-targeting crRNAs, 12 split sites were screened in PspCas13b, and 11 split sites were screened in LwaCas13a sequences.
Therefore, it is contemplated herein that the knockdown efficiency of split LwaCas13a can be brought up by optimized crRNA design. Moreover, without wishing to be bound by theory, with a more efficient crRNA, GIB-induced knockdown efficiency by splits 397/398, 488/489, 605/606, 786/787, or 826/827 could also be enhanced.

[9] = molecular target: NS3a/danoprevir complex (Hepatitis C virus genotype 1a, UniProt P27958, T1100M/T1173A); conditions: cited from earlier work
[10] = molecular target: grazoprevir/NS3a complex (Hepatitis C virus genotype 1a, UniProt P27958, T1100M/T1173A); conditions: cited from earlier work
[11] = molecular target: asunaprevir-bound NS3a (Hepatitis C virus genotype 1a, UniProt P27958, T1100M/T1173A); conditions: cited from earlier work

## C=C[C@@H]1C[C@]1(NC(=O)[C@@H]1C[C@@H]2CN1C(=O)[C@H](C(C)(C)C)NC(=O)O[C@@H]1C[C@H]1CCCCCc1nc3ccc(OC)cc3nc1O2)C(=O)NS(=O)(=O)C1CC1.O [Grazoprevir, reference compound]
[1]
  inhibition of constitutive knockdown activity of the OFF switch: able to inhibit the constitutive knockdown activity
[2]; ligand / CID dimerization domain, read-out: Dissociation constant (Kd)
  Kd: 20 pM
[2]; reversibility of the ligand-induced dimerization / action
  Reversibility: yes
[3]
  Toxicity*: no

## CC(C)(C)OC(=O)N[C@H]1CCCCC/C=C\[C@@H]2C[C@@]2(C(=O)NS(=O)(=O)C2CC2)NC(=O)[C@@H]2C[C@@H](OC(=O)N3Cc4cccc(F)c4C3)CN2C1=O [Danoprevir]
[1]
  inhibition of constitutive knockdown activity of the OFF switch: able to inhibit the constitutive knockdown activity

## TNFalpha
[4]
  mCherry knockdown by split Cas13d or WTCas13 expressed from inducible promoter: induced mCherry knockdown

B1: Flp split 374/375: split Flp, aa 1-374 / 375-423 of SEQ ID NO: 60, with tandem or single CaffVHH (protein, listed as Saccharomyces cerevisiae)
chain: MSQFDILCKTPPKVLVRQFVERFERPSGEKIASCAAELTYLCWMITHNGTAIKRATFMSYNTIISNSLSFDIVNKSLQFKYKTQKATILEASLKKLIPAWEFTIIPYNGQKHQSDITDIVSSLQLQFESSEEADKGNSHSKKMLKALLSEGESIWEITEKILNSFEYTSRFTKTKTLYQFLFLATFINCGRFSDIKNVDPKSFKLVQNKYLGVIIQCLVTETKTSVSRHIYFFSARGRIDPLVYLDEFLRNSEPVLKRVNRTGNSSSNKQEYQLLKDNLVRSYNKALKKNAPYPIFAIKNGPKSHIGRHLMTSFLSMKGLTELTNVVGNWSDKRASAVARTTYTHQITAIPDHYFALVSRYYAYDPISKEMIAL
modifications: split with 375-423; CaffVHH fusions
[5]
  induced recombination, tandem CaffVHH compared to single CaffVHH: comparable induced recombination, if not better

B2: 565/566: RfxCas13d split between residues 565/566; N and C fragments plain or fused to CID domains (protein)
chain 1: IEKKKSFAKGMGVKSTLVSGSKVYMTTFAEGSDARLEKIVEGDSIRSVNEGEAFSAEMADKNAGYKIGNAKFSHPKGYAVVANNPLYTGPVQQDMLGLKETLEKRYFGESADGNDNICIQVIHNILDIEKILAEYITNAAYAVNNISGLDKDIIGFGKFSTVYTYDEFKDPEHHRAAFNNNDKLINAIKAQYDEFDNFLDNPRLGYFGQAFFSKEGRNYIINYGNECYDILALLSGLRHWVVHNNEEESRISRTWLYNLDKNLDNEYISTLNYLYDRITNELTNSFSKNSAANVNYIAETLGINPAEFAEQYFRFSIMKEQKNLGFNITKLREVMLDRKDMSEIRKNHKVFDSIRTKVYTMMDFVIYRYYIEEDAKVAAANKSLPDNEKSLSEKDIFVINLRGSFNDDQKDALYYDEANRIWRKLENIMHNIKEFRGNKTREYKKKDAPRLPRILPAGRDVSAFSKLMYALTMFLDGKEINDLLTTLINKFDNIQSFLKVMPLIGVNAKFVEEYAFFKDSAKIADELRLIKSFARMGEPIADARRAMYIDAIRILGTNLSYDELK
chain 2: ALADTFSLDENGNKLKKGKHGMRNFIINNVISNKRFHYLIRYGDPAHLHEIAKNEAVVKFVLGRIADIQKKQGQNGKNQIDRYYETCIGKDKGKSVSEKVDALTKIITGMNYDQFDKKRSVIEDTGRENAEREKFKKIISLYLTVIYHILKNIVNINARYVIGFHCVERDAQLYKEKGYDINLKKLEEKGFSSVTKLCAGIDETAPDKRKDVEKEMAERAKESIDSLESANPKLYANYIKYSDEKKAEEFTRQINREKAKTALNAYLRNTKWNVIIREDLLRIDNKTCTLFRNKAVHLEVARYVHAYINDIAEVNSYFQLYHYIMQRIIMNERYEKSSGKVSEYFDAVNDEKKYNDRLLKLLCVPFGYCIPRFKNLSIEALFDRNEAAKFDKEKKKVSGNS
[6]; GIB induced split pairs, NES on one moiety, NLS on the other
  performance after NES/NLS compartmentalization: high inducibility with minimal leakiness
[6]; GIB: N ss-GAI/GID-ss C, ABA: N ss-PYL/ABI-ss C
  performance of reversed CID orientation versus original orientation: stronger inducibility and weaker leakiness
[6]; split pairs coupled with CID domains, with inducer
  knockdown across the various CID systems: efficient knockdown; also recorded: consistently strong drug-induced knockdown
[7]
  decrease in HLA-A2 expression level: comparable decrease in HLA-A2 expression level

B3: LwaCas13a: Cas13a from Leptotrichia wadei (protein, listed as Leptotrichia wadei)
chain: MKVTKVDGISHKKYIEEGKLVKSTSEENRTSERLSELLSIRLDIYIKNPDNASEEENRIRRENLKKFFSNKVLHLKDSVLYLKNRKEKNAVQDKNYSEEDISEYDLKNKNSFSVLKKILLNEDVNSEELEIFRKDVEAKLNKINSLKYSFEENKANYQKINENNVEKVGGKSKRNIIYDYYRESAKRNDYINNVQEAFDKLYKKEDIEKLFFLIENSKKHEKYKIREYYHKIIGRKNDKENFAKIIYEEIQNVNNIKELIEKIPDMSELKKSQVFYKYYLDKEELNDKNIKYAFCHFVEIEMSQLLKNYVYKRLSNISNDKIKRIFEYQNLKKLIENKLLNKLDTYVRNCGKYNYYLQVGEIATSDFIARNRQNEAFLRNIIGVSSVAYFSLRNILETENENGITGRMRGKTVKNNKGEEKYVSGEVDKIYNENKQNEVKENLKMFYSYDFNMDNKNEIEDFFANIDEAISSIRHGIVHFNLELEGKDIFAFKNIAPSEISKKMFQNEINEKKLKLKIFKQLNSANVFNYYEKDVIIKYLKNTKFNFVNKNIPFVPSFTKLYNKIEDLRNTLKFFWSVPKDKEEKDAQIYLLKNIYYGEFLNKFVKNSKVFFKITNEVIKINKQRNQKTGHYKYQKFENIEKTVPVEYLAIIQSREMINNQDKEEKNTYIDFIQQIFLKGFIDYLNKNNLKYIESNNNNDNNDIFSKIKIKKDNKEKYDKILKNYEKHNRNKEIPHEINEFVREIKLGKILKYTENLNMFYLILKLLNHKELTNLKGSLEKYQSANKEETFSDELELINLLNLDNNRVTEDFELEANEIGKFLDFNENKIKDRKELKKFDTNKIYFDGENIIKHRAFYNIKKYGMLNLLEKIADKAKYKISLKELKEYSNKKNEIEKNYTMQQNLHRKYARPKKDEKFNDEDYKEYEKAIGNIQKYTHLKNKVEFNELNLLQGLLLKILHRLVGYTSIWERDLRFRLKGEFPENHYIEEIFNFDNSKNVKYKSGQIVEKYINFYKELYKDNVEKRSIYSDKKVKKLKQEKKDLYIRNYIAHFNYIPHAEISLLEVLENLRKLLSYDRKLKNAIMKSIVDILKEYGFVATFKIGADKKIEIQTLESEKIVHLKNLKKKKLMTDRNSEELCELVKVMFEYKALE
[8]; position-matched LwaCas13a crRNA
  mCherry knockdown compared to no crRNA control group: did not achieve mCh knockdown
[8]; two additional mCherry-targeting crRNA sequences, populations highly expressing Cas13a
  mCherry knockdown: around 50%

B4: D5: reader domain, SEQ ID NO: 166 (protein)
chain: SSDEEEARELIERAKEAAERAQEAAERTGDPRVRELARELKRLAQEAAEEVKRDPSSSDVNEALKLIVEAIEAAVDALEAAERTGDPEVRELARELVRLAVEAAEEVQRNPSSSDVNEALLTIVIAIEAAVNALEAAERTGDPEVRELARELVRLAVEAAEEVQRNPSSREVNIALWKIVLAIQEAVESLREAEESGDPEKREKARERVREAVERAEEVQRDPSGWLNH
[9]
  binding of NS3 in the presence of danoprevir: moderate binding
[10]
  binding of NS3 in the presence of grazoprevir: moderate binding
[11]
  binding of NS3 in the presence of asunaprevir: some binding

B5: DNCR1: danoprevir/NS3 complex reader, SEQ ID NO: 167 (protein)
chain: B4 chain with T122S, N132H, N173E, I174H, W177M, Q184Y, V187E
[9]
  binding of NS3 in the presence of danoprevir: high binding
[10]
  binding of NS3 in the presence of grazoprevir: minimal binding
[11]
  binding of NS3 in the presence of asunaprevir: minimal binding

B6: G3: reader domain, SEQ ID NO: 168 (protein)
chain: DIEKLCKKAEEEAKEAQEKADELRQRHPDSQAAEDAEDLANEAEAAVLAACSLAQEHPNADIAKLCIKAASEAAEAASKAAELAQRHPDSQAARDAIKLASQAARAVILAIMLAAENPNADIAKLCIKAASEAAEAASKAAELAQRHPDSQAARDAIKLASQAAEAVERAIWLAAENPNADIAKKCIKAASEAAEEASKAAEEAQRHPDSQKARDEIKEASQKAEEVKERCKS
[9]
  binding of NS3 in the presence of danoprevir: no binding
[10]
  binding of NS3 in the presence of grazoprevir: moderate binding
[11]
  binding of NS3 in the presence of asunaprevir: some binding
